Experimental data taken from publication PMC11098746 (2024).

B1: ADP111 (protein)
chain: MVLLRVLILLLSWAAGMGGQYGNPLNKYIRHYEGLSYNVDSLHQKHQRAKRAVSHEDQFLRLDFHAHGRHFNLRMKRDTSLFSDEFKVETSNKVLDYDTSHIYTGHIYGEEGSFSHGSVIDGRFEGFIQTRGGTFYVEPAERYIKDRTLPFHSVIYHEDDINYPHKYGPQGGCADHSVFERMRKYQMTGVEEVTQIPQEEHAANGPELLRKKRTTSAEKNTCQLYIQTDHLFFKYYGTREAVIAQISSHVKAIDTIYQTTDFSGIRNISFMVKRIRINTTADEKDPTNPFRFPNIGVEKFLELNSEQNHDDYCLAYVFTDRDFDDGVLGLAWVGAPSGSSGGICEKSKLYSDGKKKSLNTGIITVQNYGSHVPPKVSHITFAHEVGHNFGSPHDSGTECTPGESKNLGQKENGNYIMYARATSGDKLNNNKFSLCSIRNISQVLEKKRNNCFVESGQPICGNGMVEQGEECDCGYSDQCKDECCFDANQPEGRKCKLKPGKQCSPSQGPCCTAQCAFKSKSEKCRDDSDCAREGICNGFTALCPASDPKPNFTDCNRHTQVCINGQCAGSICEKYGLEECTCASSDGKDDKELCHVCCMKKMDPSTCASTGSVQWSRHFSGRTITLQPGSPCNDFRGYCDVFMRCRLVDADGPLARLKKAIFSPELYENIAEW
modifications: bait human Fc-tagged dimer
B2: ADP319 (protein)
chain: MVSSGCRMRSLWFIIVISFLPNTEGFSRAALPFGLVRRELSCEGYSIDLRCPGSDVIMIESANYGRTDDKICDADPFQMENTDCYLPDAFKIMTQRCNNRTQCIVVTGSDVFPDPCPGTYKYLEVQYECVPYIFVCPGTLKAIVDSPCIYEAEQKAGAWCKDPLQAADKIYFMPWTPYRTDTLIEYASLEDFQNSRQTTTYKLPNRVDGTGFVVYDGAVFFNKERTRNIVKFDLRTRIKSGEAIINYANYHDTSPYRWGGKTDIDLAVDENGLWVIYATEQNNGMIVISQLNPYTLRFEATWETVYDKRAASNAFMICGVLYVVRSVYQDNESETGKNSIDYIYNTRLNRGEYVDVPFPNQYQYIAAVDYNPRDNQLYVWNNNFILRYSLEFGPPDPAQVPTTAVTITSSAELFKTIISTTSTTSQKGPMSTTVAGSQEGSKGTKPPPAVSTTKIPPITNIFPLPERFCEALDSKGIKWPQTQRGMMVERPCPKGTRGTASYLCMISTGTWNPKGPDLSNCTSHWVNQLAQKIRSGENAASLANELAKHTKGPVFAGDVSSSVRLMEQLVDILDAQLQELKPSEKDSAGRSYNKLQKREKTCRAYLKAIVDTVDNLLRPEALESWKHMNSSEQAHTATMLLDTLEEGAFVLADNLLEPTRVSMPTENIVLEVAVLSTEGQIQDFKFPLGIKGAGSSIQLSANTVKQNSRNGLAKLVFIIYRSLGQFLSTENATIKLGADFIGRNSTIAVNSHVISVSINKESSRVYLTDPVLFTLPHIDPDNYFNANCSFWNYSERTMMGYWSTQGCKLVDTNKTRTTCACSHL
modifications: bait human Fc-tagged dimer
B3: ADP293 (protein)
chain: MALLPRLLLLLLLVFPATVLFRGGPRGLLAVAQDLTEDEETVEDSIIEDEDDEAEVEEDEPTDLVEDKEEEDVSGEPEASPSADTTILFVKGEDFPANNIVKFLVGFTNKGTEDFIVESLDASFRYPQDYQFYIQNFTALPLNTVVPPQRQATFEYSFIPAEPMGGRPFGLVINLNYKDLNGNVFQDAVFNQTVTVIEREDGLDGET
modifications: bait human Fc-tagged dimer
B4: ADP395 (protein)
chain: FVNKDQIAKDVKQFYDQALQQAVVDDDANNAKAVVKTFHETLDCCGSSTLTALTTSVLKNNLCPSGSNIISNLFKEDCHQKIDDLFSGK
modifications: bait human Fc-tagged dimer
B5: ADP334 (protein)
chain: MASGRDERPPWRLGRLLLLMCLLLLGSSARAAHIKKAEATTTTTSAGAEAAEGQFDRYYHEEELESALREAAAAGLPGLARLFSIGRSVEGRPLWVLRLTAGLGSLIPEGDAGPDAAGPDAAGPLLPGRPQVKLVGNMHGDETVSRQVLIYLARELAAGYRRGDPRLVRLLNTTDVYLLPSLNPDGFERAREGDCGFGDGGPSGASGRDNSRGRDLNRSFPDQFSTGEPPALDEVPEVRALIEWIRRNKFVLSGNLHGGSVVASYPFDDSPEHKATGIYSKTSDDEVFKYLAKAYASNHPIMKTGEPHCPGDEDETFKDGITNGAHWYDVEGGMQDYNYVWANCFEITLELSCCKYPPASQLRQEWENNRESLITLIEKVHIGVKGFVKDSITGSGLENATISVAGINHNITTGRFGDFYRLLVPGTYNLTVVLTGYMPLTVTNVVVKEGPATEVDFSLRPTVTSVIPDTTEAVSTASTVAIPNILSGTSSSYQPIQPKDFHHHHFPDMEIFLRRFANEYPNITRLYSLGKSVESRELYVMEISDNPGVHEPGEPEFKYIGNMHGNEVVGRELLLNLIEYLCKNFGTDPEVTDLVHNTRIHLMPSMNPDGYEKSQEGDSISVIGRNNSNNFDLNRNFPDQFVQITDPTQPETIAVMSWMKSYPFVLSANLHGGSLVVNYPFDDDEQGLATYSKSPDDAVFQQIALSYSKENSQMFQGRPCKNMYPNEYFPHGITNGASWYNVPGGMQDWNYLQTNCFEVTIELGCVKYPLEKELPNFWEQNRRSLIQFMKQVHQGVRGFVLDATDGRGILNATISVAEINHPVTTYKTGDYWRLLVPGTYKITASARGYNPVTKNVTVKSEGAIQVNFTLVRSSTDSNNESKKGKGASSSTNDASDPTTKEFETLIKDLSAENGLESLMLRSSSNLALALYRYHSYKDLSEFLRGLVMNYPHITNLTNLGQSTEYRHIWSLEISNKPNVSEPEEPKIRFVAGIHGNAPVGTELLLALAEFLCLNYKKNPAVTQLVDRTRIVIVPSLNPDGRERAQEKDCTSKIGQTNARGKDLDTDFTNNASQPETKAIIENLIQKQDFSLSVALDGGSMLVTYPYDKPVQTVENKETLKHLASLYANNHPSMHMGQPSCPNKSDENIPGGVMRGAEWHSHLGSMKDYSVTYGHCPEITVYTSCCYFPSAARLPSLWADNKRSLLSMLVEVHKGVHGFVKDKTGKPISKAVIVLNEGIKVQTKEGGYFHVLLAPGVHNIIAIADGYQQQHSQVFVHHDAASSVVIVFDTDNRIFGLP
modifications: bait human Fc-tagged dimer
B6: ADP368 (protein)
chain: MERASCLLLLLLPLVHVSATTPEPCELDDEDFRCVCNFSEPQPDWSEAFQCVSAVEVEIHAGGLNLEPFLKRVDADADPRQYADTVKALRVRRLTVGAAQVPAQLLVGALRVLAYSRLKELTLEDLKITGTMPPLPLEATGLALSSLRLRNVSWATGRSWLAELQQWLKPGLKVLSIAQAHSPAFSCEQVRAFPALTSLDLSDNPGLGERGLMAALCPHKFPAIQNLALRNTGMETPTGVCAALAAAGVQPHSLDLSHNSLRATVNPSAPRCMWSSALNSLNLSFAGLEQVPKGLPAKLRVLDLSCNRLNRAPQPDELPEVDNLTLDGNPFLVPGTALPHEGSMN
modifications: bait human Fc-tagged dimer
B7: ADP332 (protein)
chain: MAPPGRRECPFPSWRFPGLLLAAMVLLLYSFSDACEEPPTFEAMELIGKPKPYYEIGERVDYKCKKGYFYIPPLATHTICDRNHTWLPVSDDACYRETCPYIRDPLNGQAVPANGTYEFGYQMHFICNEGYYLIGEEILYCELKGSVAIWSGKPPICEKVLCTPPPKIKNGKHTFSEVEVFEYLDAVTYSCDPAPGPDPFSLIGESTIYCGDNSVWSRAAPECKVVKCRFPVVENGKQISGFGKKFYYKATVMFECDKGFYLDGSDTIVCDSNSTWDPPVPKCLKVLPPSSTKPPALSHSVSTSSTTKSPASSASGPRPTYKPPVSNYPGYPKPEEGILDSLDV
modifications: bait human Fc-tagged dimer
B8: ADP299 (protein)
chain: MDLRQFLMCLSLCTAFALSKPTEKKDRVHHEPQLSDKVHNDAQSFDYDHDAFLGAEEAKTFDQLTPEESKERLGKIVSKIDGDKDGFVTVDELKDWIKFAQKRWIYEDVERQWKGHDLNEDGLVSWEEYKNATYGYVLDDPDPDDGFNYKQMMVRDERRFKMADKDGDLIATKEEFTAFLHPEEYDYMKDIVVQETMEDIDKNADGFIDLEEYIGDMYSHDGNTDEPEWVKTEREQFVEFRDKNRDGKMDKEETKDWILPSDYDHAEAEARHLVYESDQNKDGKLTKEEIVDKYDLFVGSQATDFGEALVRHDEF
modifications: bait human Fc-tagged dimer
B9: ADP121 (protein)
chain: MGTLLLVLWLATRGSALYFHIGETEKKCFIEEIPDETMVIGNYRTQLYDKQREEYQPATPGLGMFVEVKDPEDKVILARQYGSEGRFTFTSHTPGEHQICLHSNSTKFSLFAGGMLRVHLDIQVGEHANDYAEIAAKDKLSELQLRVRQLVEQVEQIQKEQNYQRWREERFRQTSESTNQR
modifications: bait human Fc-tagged dimer
B10: ADP269 (protein)
chain: SRHQAPCGPQAFAHAAVAADSKVCSDIGRAILQQQGSPVDATIAALVCTSVVNPQSMGLGGGVIFTIYNVTTGKVEVINARETVPASHAPSLLDQCAQALPLGTGAQWIGVPGELRGYAEAHRRHGRLPWAQLFQPTIALLRGGHVVAPVLSRFLHNSILRPSLQASTLRQLFFNGTEPLRPQDPLPWPALATTLETVATEGVEVFYTGRLGQMLVEDIAKEGSQLTLQDLAKFQPEVVDALEVPLGDYTLYSPPPPAGGAILSFILNVLRGFNFSTESMARPEGRVNVYHHLVETLKFAKGQRWRLGDPRSHPKLQNASRDLLGETLAQLIRQQIDGRGDHQLSHYSLAEAWGHGTGTSHVSVLGEDGSAVAATSTINTPFGAMVYSPRTGIILNNELLDLCERCPRGSGTTPSPAVSGDRVGGAPGRCWPPVPGERSPSSMVPSILINKAQGSKLVIGGAGGELIISAVAQAIMSKLWLGFDLRAAIAAPILHVNSKGCVEYEPNFSQEVQRGLQDRGQNQTQRPFFLNVVQAVSQEGACVYAVSDLRKSGEAAGY
modifications: bait human Fc-tagged dimer
B11: ADP292 (protein)
chain: MARPGSAQRWAAVAGRWGCRLLALLLLVPGPGGASEITFELPDNAKQCFYEDIAQGTKCTLEFQVITGGHYDVDCRLEDPDGKVLYKEMKKQYDSFTFTASKNGTYKFCFSNEFSTFTHKTVYFDFQVGEDPPLFPSENRVSALTQMESACVSIHEALKSVIDYQTHFRLREAQGRSRAEDLNTRVA
modifications: bait human Fc-tagged dimer
B12: ADP270 (protein)
chain: ALSPKCLDWWQEGPMYQIYPRSFKDSNKDGNGDLKGIQDKLDYITALNIKTVWITSFYKSSLKDFRYGVEDFREVDPIFGTMEDFENLVAAIHDKGLKLIIDFIPNHTSDKHIWFQLSRTRTGKYTDYYIWHDCTHENGKTIPPNNWLSVYGNSSWHFDEVRNQCYFHQFMKEQPDLNFRNPDVQEEIKEILRFWLTKGVDGFSLDAVKFLLEAKHLRDEIQVNKTQIPDTVTQYSELYHDFTTTQVGMHDIVRSFRQTMDQYSTEPGRYRFMGTEAYAESIDRTVMYYGLPFIQEADFPFNNYLSMLDTVSGNSVYEVITSWMENMPEGKWPNWMIGGPDSSRLTSRLGNQYVNVMNMLLFTLPGTPITYYGEEIGMGNIVAANLNESYDINTLRSKSPMQWDNSSNAGFSEASNTWLPTNSDYHTVNVDVQKTQPRSALKLYQDLSLLHANELLLNRGWFCHLRNDSHYVVYTRELDGIDRIFIVVLNFGESTLLNLHNMISGLPAKMRIRLSTNSADKGSKVDTSGIFLDKGEGLIFEHNTKNLLHRQTAFRDRCFVSNRACYSSVLNILYTSC
modifications: bait human Fc-tagged dimer

Molecular target: Circumsporozoite protein (CSP) (Plasmodium falciparum (isolate 3D7), UniProt Q7K740)
Sequence (Q7K740 19-374): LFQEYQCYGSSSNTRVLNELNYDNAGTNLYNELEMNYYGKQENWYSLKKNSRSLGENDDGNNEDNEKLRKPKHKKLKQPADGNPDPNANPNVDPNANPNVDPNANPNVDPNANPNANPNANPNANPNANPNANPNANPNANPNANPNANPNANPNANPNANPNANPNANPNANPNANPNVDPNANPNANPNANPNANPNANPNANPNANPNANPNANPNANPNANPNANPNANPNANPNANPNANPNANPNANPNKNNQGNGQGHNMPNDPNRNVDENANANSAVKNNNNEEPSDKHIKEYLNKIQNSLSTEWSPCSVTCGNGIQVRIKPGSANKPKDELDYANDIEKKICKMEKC
Assay: AVEXIS screen signal:noise (double-corrected)

Q: Which binding score does the source give for B1 here?
A: The binding score was 0.777.

Q: B2 was tested. Which binding score did it give?
A: Its binding score is 1.9.

Q: How did the binding score turn out when B3 was run?
A: The binding score was 1.28.

Q: For B4, which binding score is on record?
A: The binding score was 1.84.

Q: With B5 as the binder, how does the binding score read?
A: Its binding score is 1.2.

Q: Which binding score does the source give for B6 here?
A: The binding score was 1.29.

Q: B7 was tested. Which binding score did it give?
A: The binding score was 0.982.

Q: For B8, which binding score is on record?
A: Its binding score is 1.11.

Q: With B9 as the binder, how does the binding score read?
A: The binding score was 0.979.

Q: B10 was tested. Which binding score did it give?
A: Its binding score is 0.734.

Q: Which binding score does the source give for B11 here?
A: The binding score was 1.08.

Q: For B12, which binding score is on record?
A: Its binding score is 7.97.
